In patent US7112333B1, “T cell epitopes of ryegrass pollen allergen” (Heska Corporation, priority 1994, dated 2006):

B1: rLol p V: bacterially expressed recombinant Lol p V encoded by clone 12R, with His6 sequence (protein)
chain: MHHHHHHMAVQKYTVALFLAVALVAGPAASYAADAGYTPAAAATPATPAATPAAAGGKATTDEQKLLEDVNAGFKAAVAAAANAPPADKFKIFEAAFSESSKGLLATSAAKAPGLIPKLDTAYDVAYKAAEGATPEAKYDAFVTALTEALRVIAGALEVHAVKPATEEVPAAKIPTGELQIVDKIDAAFKIAATAANAAPTNDKFTVFESAFNKALNECTGGAYETYKFIPSLEAAVKQAYAATVAAAPEVKYAVFEAALTKAITAMTQAQKAGKPAAAAATGAATVATGAATAAAGAATAAAGGYKA
B2: Lol p V: major ryegrass (Lolium perenne) pollen protein allergen (protein)
chain: B1 chain
B3: purified native Lol p V: Lol p V allergens affinity-purified from ryegrass pollen on mAb 1B9 column (protein)
chain: ADAGYTPAAAATPATPAATPAAAGGKATTDEQKLLEDVNAGFKAAVAAAANAPPADKFKIFEAAFSESSKGLLATSAAKAPGLIPKLDTAYDVAYKAAEGATPEAKYDAFVTALTEALRVIAGALEVHAVKPATEEVPAAKIPTGELQIVDKIDAAFKIAATAANAAPTNDKFTVFESAFNKALNECTGGAYETYKFIPSLEAAVKQAYAATVAAAPEVKYAVFEAALTKAITAMTQAQKAGKPAAAAATGAATVATGAATAAAGAATAAAGGYKA
modifications: non-natural residues

Columns and labels:
Lol p V reactive T Cells = experiment: T cell proliferation (tritiated thymidine) of Lol p V-primed T cell lines from grass-allergic patients; type: cell-based, human; details: one allergic patient; results not shown
Source text: As discussed in Example 2, human T cell stimulating activity can be tested by culturing T cells obtained from an individual sensitive to Lol p V allergen, (i.e., an individual who has an IgE mediated immune response to Lol p V allergen) with a peptide derived from the allergen and determining whether proliferation of T cells occurs in response to the peptide as measured, e.g., by cellular uptake of tritiated thymidine. Stimulation indices for responses by T cells to peptides can be calculated as the maximum CPM in response to a peptide divided by the control CPM. A stimulation index (S.I.) equal to or greater than two times the background level is considered “positive”. […]
In addition, preferred peptides have a positivity index (P.I.) of at least about 60, more preferably about 100, more preferably at least about 200 and most preferably at least about 300. The positivity index for a peptide is determined by multiplying the mean T cell stimulation index by the percent of individuals, in a population of individuals sensitive to ryegrass pollen (e.g., preferably a population of at least 15 individuals, more preferably a population of at least 30 individuals or more), who have a T cell stimulation index to such peptide of at least 2.0. […]
This amount of priming antigen was determined to be optimal for the activation of T cells from most grass-allergic patients. […]

human IgE [1] = experiment: Direct ELISA of human IgE binding to coated antigen
Protocol: (§1) To examine the importance of Lol p V, both direct and competition ELISA assays were performed. In the direct ELISA, 100 μl of 10 μg/ml of antigen in Phosphate Buffered Saline, pH 7.4 (PBS) was used to coat Immulon II (Dynatech, Chantilly, Va.) 96 well plates for 4 hours at room temperature (RT) or overnight (O/N) at 4° C. In between each step the plates were washed 3× with PBS-T. The excess coating antigen(s) was removed and the wells blocked with 300 μl/well 0.5% gelatin +1 mg/ml PVP in PBS for 1 hour at RT. Serially diluted patient plasma or the diluent PBS+0.05% Tween^−20 was incubated in at 100 μl/well in duplicate wells overnight at 4° C. […] Plates were read on a MR7000 plate reader (Dynatech, Chantilly, Va.) with a 450 nm filter. The absorbance levels of duplicate wells were averaged. The results were graphed as absorbance vs. dilution. […] The results are plotted as the absorbance vs. the log of the concentration of competing antigen.
For the direct ELISA, wells were coated with either soluble pollen extract (SPE) of ryegrass pollen or rLol p V (purified native Lol p V may have a small amount of Lol p I; use of recombinant material assures that the IgE binding is only to Lol p V) and human IgE antibody binding to these antigens was analyzed. […]

[2] = system: human basophil mediator release; experiment: Histamine release assay on whole blood of a ryegrass allergic individual; type: cell-based; details: one ryegrass allergic individual; whole heparinized blood; 37° C., 30 minutes; FIG. 12
Protocol: A histamine release assay was performed on one ryegrass allergic individual, using Lol p SPE and rLol p V as the added antigens. This assay is a measure of IgE reactivity through human basophil mediator release, and it is based on the detection of an acylated derivative of histamine using a specific monoclonal antibody (Morel, A. M. and Delaage, M. A.; 1988, J. Allergy Clin. Immunol. 82: 646–654). The reagents for this radioimmunoassay are sold as a kit by Amac Inc. (Westbrook, Me.). Whole heparinized blood drawn from a grass allergic individual and then […] aliquots were mixed with an equal amount of the grass antigens SPE and rLol p V at various concentrations or the diluent, PACM buffer (25 mM PIPES, 100 mM NaCl, 5 mM KCL, 4 mM CaCl2, 1 mM MgCl2, 0.003% HSA, pH7.3) in 1.5 ml polypropylene. The release reactions were carried out at 37° C. for 30 minutes. After this incubation the samples were centrifuged at 1500 RPM for 3 minutes and the supernatants removed. For the total histamine release, 0.1 ml of blood was added to 0.9 ml of PACM buffer, vortexed, and then boiled for 3 minutes. The samples were spun at 13000 RPM and the supernatant removed for analysis. Duplicate samples were used to measure total release. All of the supernatants are diluted 1:4 in acylation buffer and the remainder of the assay is performed according to the manufacturer's instructions.

human IgE [3] = experiment: Competition ELISA for IgE binding to ryegrass pollen SPE; details: IgE source PHP-A or individual patient plasma; FIGS. 10 and 11
Protocol: as §1
In the competition assay, ELISA wells were coated with ryegrass pollen SPE and then allergic patient IgE binding was measured in the presence of competing ryegrass pollen SPE, purified native Lol p V, or rLol p V. The source of allergic IgE in this assay was PHP-A (FIG. 10) or individual patient plasma (FIG. 11). […]

specific IgE = details: immunoblotting; WO 93/04174, page 65; cited from earlier work

Molecule | T cell proliferative response of one patient (Lol p V reactive T Cells) | IgE binding in direct ELISA (human IgE [1]; IgE source PHP-A, PHP-B or four individual patients, FIGS. 6-9) | IgE binding in direct ELISA (reactivity to Lol p V peptides) (human IgE [1]; IgE source PHP-B, preliminary assay, FIG. 13a and 13b) | histamine release [2] | competition for IgE binding to ryegrass pollen SPE (human IgE [3]) | ryegrass pollen sensitive patients possessing specific IgE antibody that bound (specific IgE) [%]
B1 | responds well | high IgE binding | very high IgE binding | strong histamine release over a wide concentration range | – | –
B2 | – | – | – | – | significant portion of IgE against Lol p SPE is specific for Lol p V | 80
B3 | responds well | – | – | – | – | –
